In patent US20190233498A1 (H LUNDBECK A S, published 2019):

T1: human PACAP38 (human, not fully specified; C-terminal lysine is amidated; N-terminal or C-terminal biotin in the HTRF and PC-12 cell binding assays)
T1 peptide: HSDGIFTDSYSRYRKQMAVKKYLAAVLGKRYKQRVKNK

T2: human PACAP27 (human, C-terminal leucine is amidated; 125I-labelled in Example 10)
T2 peptide: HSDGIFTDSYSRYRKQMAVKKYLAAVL

T3: human VIP (human)
T3 construct: also called Vasoactive Intestinal Peptide
T3 peptide: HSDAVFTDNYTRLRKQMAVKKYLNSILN

B1: anti-PACAP antibody Ab5.H (antibody, human IgG1, kappa, N297A, V domains shown)
VH: EVQLVESGGGLVQPGGSLRLSCAASGFSLSSYAMIWVRQAPGKGLEWVGIIYDNGDTYYASSAKGRFTISRDNSKNTVYLQMNSLRAEDTAVYFCAREPGSTTQNDLWGQGTLVTVSS
VL: DVQMTQSPSTLSASVGDRVTITCQASENIYNSLLWYQQKPGKAPKLLIYRASTLASGVPSRFSGSGSGTEFTLTISSLQPDDFATYYCQNYYNIWTNGAAFGGGTKVEIKR
notes: humanized form of Ab5, full length
B2: anti-PACAP antibody Ab12.H (antibody, human IgG1, kappa, N297A, V domains shown)
VH: EVQLVESGGGLVQPGGSLRLSCAASGFSLSSYAMGWVRQAPGKGLEWIGDISTYGTTDYASWVYGRFTISRDNSKNTVYLQMNSLRAEDTAVYFCARDYWLSLWGQGTLVTVSS
VL: AAQLTQSPSTLSASVGDRVTITCQSSQSVYDNNALAWYQQKPGKAPKLLIYAASTLASGVPSRFSGSGSGTEFTLTISSLQPDDFATYYCLGGYYDPADNAFGGGTKVEIKR
notes: humanized form of Ab12, full length
B3: anti-PACAP antibody Ab23 (antibody, human IgG1, kappa, N297A, V domains shown)
VH: QSVEESGGRLVTPGTPLTLTCTVSGFSLNNYAMSWVRQAPGKGLEWIGIMGVNDITYYASWAKGRFTISKTSTTVDLKMTSLTTEDTATYFCTREIRDDGDSSDKLWGPGTLVTVSS
VL: AIKMTQTPSSVSAAVGGTVTINCQASEDIYTNLAWYQQKPGQPPNLLIYDASDLASGVPSRFSGSGDGTQFTLTISAVQCEDAATYYCQGVAWSSNTGYGSAFGGGTEVVVKR
notes: full-length rabbit/human chimeric antibody; PACAP38 specific
B4: anti-PACAP antibody Ab22 (antibody, human IgG1, kappa, N297A, V domains shown)
VH: QEQLVESGGGLVQPEGSLTLTCTASGFDFSSNAMCWVRQAPGKGLEWIGSIYNADGKNYYAIWAKGRFTISRTSSTTVTLQMTSLTAADTATYFCARDFDLWGQGTLVTVSS
VL: AAVLTQTPSPVSAAVGGTVTINCQSSQSVYDNDWLAWFQQKPGQPPKLLIYLTSTLASGVPSRFSGSGSGTQFTLTISGVQCDDAATYYCLGGYDEDGDTHVFGGGTEVVVKR
notes: as for B3
B5: anti-PACAP antibody Ab1.H (antibody, human IgG1, kappa, N297A, V domains shown)
VH: EVQLVESGGGLVQPGGSLRLSCAASGFTVSSAVMNWVRQAPGKGLEWIGSIVASGTTYYASSANGRFTISRDNSKNTLYLQMNSLRAEDTAVYYCARGGGEFFIWGQGTLVTVSS
VL: DIQMTQSPSTLSASVGDRVTITCQSSESVYSNYLSWYQQKPGKAPKFLIYQASNLASGVPSRFSGSGSGTEFTLTISSLQPDDFATYYCAGGYSENIVGFGGGTKVEIKR
notes: humanized form of Ab1, full length
B6: anti-PACAP antibody Ab9.H (antibody, human IgG1, kappa, N297A, V domains shown)
VH: EVQLVESGGGLVQPGGSLRLSCAASGFTVSRDYWICWVRQAPGKGLEWIGCISAGGGSTDYANWVNGRFTISRDISKNTGYLQMNSLRAEDTAVYYCAGNLEIWGQGTLVTVSS
VL: DIQMTQSPSTLSASVGDRVTITCQSSPSIYSGAFLSWYQQKPGKAPKFLIYEASKLASGVPSRFSGSGSGTEFTLTISSLQPDDFATYYCLGFYDCSSVDCHAFGGGTKVEIKR
notes: humanized form of Ab9, full length

Molecular target: T1, human PACAP38
Experiment: cell-based or functional assay

Row | IC50, 5 nM PACAP38-induced human VPAC1-R mediated cAMP increase | Binder
1 | 0.00277 µM | B1
2 | 0.00128 µM | B2
3 | 0.00267 µM | B3
4 | 0.0013 µM | B4
5 | 0.00102 µM | B5
6 | 0.00246 µM | B6

Molecular target: T1, human PACAP38
Experiment: inhibition of 30 nM biotin-PACAP38 binding to PC-12 cells, TRF
Procedure: To identify antibodies that block PACAP38 binding to PAC1-R-expressing cells, adherent PC-12 cells (ATCC, Manassas, Va.) expressing PAC1-R were used in a Europium-based PAC1-R expressing cells binding assay.
Antibody solutions were incubated with N-terminal biotinylated PACAP38 at 10× the final concentration (100 nM or 30 nM) for 1 hr, then added to PC-12 cells that were plated 24 hrs. prior in black clear bottom 96 well plates (COSTAR™, Corning Incorporated, Corning, N.Y.) and further incubated for 1 hr at room temperature. After three washes, the cells were incubated with 20 μl Europium-labeled streptavidin (PerkinElmer, Waltham, Mass.) for 1 hr at room temperature. Cells were washed three times, then 20 μl DELFIA® Enhancement solution (PerkinElmer, Waltham, Mass.) was added to each well and incubated for 15 minutes with gentle shaking. Plates were read (Time Resolved Fluorescence (“TRF”)) on SPECTRAMAX® (Molecular Devices, Sunnyvale, Calif.) plate reader.
FIGS. 14A-14BB are representative of the inhibition curves obtained by this method (results are shown for Ab1, Ab2, Ab3, Ab4, Ab5, Ab6, Ab7, Ab8, Ab9, Ab10, Ab11, Ab12, Ab13, Ab14, Ab15, Ab16, Ab17, Ab18, Ab19, Ab1.H, Ab10.H, Ab22, Ab23, Ab3.H, Ab4.H, Ab5.H, Ab9.H, and Ab12.H, respectively) wherein the PAC1-R expressing cells were PC-12 cells.

Row | IC50 | Binder
7 | 0.0349 µM | B1
8 | 0.0681 µM | B2
9 | 0.0149 µM | B3
10 | 0.0138 µM | B4
11 | 0.0563 µM | B5
12 | 0.0225 µM | B6

Molecular target: T1, human PACAP38
Experiment: cell-based or functional assay
Remark: another data set of the same source

Row | IC50, 1 nM PACAP38-induced human VPAC2-R mediated cAMP increase | Binder
13 | 0.00747 µM | B1
14 | 0.000653 µM | B2
15 | 0.00179 µM | B3
16 | 0.000515 µM | B4
17 | 0.000983 µM | B5
18 | 0.00265 µM | B6

Molecular target: T1, human PACAP38
Experiment: HTRF binding, biotin-PACAP38
Procedure, shortened: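 Antibody dilution series (top 100 nM final) incubated with N- or C-terminal biotinylated PACAP38 (35 nM final), alone or with 350 nM PACAP27 or VIP. HTRF with Eu³⁺ anti-human Fc donor and d2-streptavidin acceptor, 1 h at room temperature, read at 620/665 nm; EC₅₀ from binding curves.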

Row | EC50 | Binder
19 | 0.00056 µM | B3
20 | 0.00057 µM | B4
21 | 0.00046 µM | B5

Molecular target: T2, human PACAP27
Experiment: inhibition of 0.1 nM 125I-PACAP27 binding to human PAC1-R membranes
Procedure: To identify antibodies that block PACAP27 binding to PAC1-R, antibodies at an initial concentration of 30 nM were diluted in incubation buffer (50 mM Hepes pH 7.4, 1 mM CaCl₂, 5 mM MgCl₂, 0.2% BSA) and serial 1:3 dilutions were performed. Antibody dilutions (30 nM, 10 nM, 3 nM, 1 nM, 0.3 nM, 0.1 nM, 0.03 nM, 0.01 nM, 0.003 nM and 0.001 nM) were then mixed and pre-incubated at 25° C. for 30 minutes with 0.1 nM of ¹²⁵I-labelled PACAP27 in incubation buffer. The antibody: ¹²⁵I-labelled PACAP27 mixture was then added to 0.5 μg aliquots of cell membranes derived from Chem-1 cells expressing human recombinant PAC1-R long isoform in incubation buffer. The mixture was then incubated for 1 hour at 25° C. Following incubation, the samples were filtered and washed. Afterward, the filters were counted to quantitate ¹²⁵I-labelled PACAP27. As an experimental control, non-specific binding to the cell membranes was estimated using 0.1 μM of […] PACAP27.

Row | IC50 | Binder
22 | 0.00016 µM | B2
23 | 0.0007 µM | B5

Molecular target: T1, human PACAP38
Experiment: cell-based or functional assay
Remark: another data set of the same source

Row | IC50, 0.1 nM PACAP38-induced PAC1-R mediated cAMP increase | Binder
24 | 0.000378 µM | B1
25 | 0.000114 µM | B2
26 | 0.000115 µM | B3
27 | 0.000101 µM | B4
28 | 0.00026 µM | B5
29 | 0.000278 µM | B6

Molecular target: T2, human PACAP27
Experiment: cell-based or functional assay

Row | IC50, 0.1 nM PACAP27-induced PAC1-R mediated cAMP increase | Binder
30 | 217 pM | B1
31 | 86.3 pM | B2
32 | 57.7 pM | B5
33 | 270 pM | B6

Molecular target: T3, human VIP
Experiment: SPR, Ab immobilised

Row | Kd | koff | kon | Binder
34 | 100000 µM | 0.1 s⁻¹ |  | B1
35 | 0.051 µM | 0.014 s⁻¹ | 280000 M⁻¹ s⁻¹ | B2
36 | 0.73 µM | 0.32 s⁻¹ | 430000 M⁻¹ s⁻¹ | B3
37 | 0.69 µM | 0.18 s⁻¹ | 270000 M⁻¹ s⁻¹ | B4
38 | 4.8 µM | 0.18 s⁻¹ | 38000 M⁻¹ s⁻¹ | B5
39 | 1.5 µM | 0.14 s⁻¹ | 93000 M⁻¹ s⁻¹ | B6

Molecular target: T1, human PACAP38
Experiment: SPR, Ab immobilised
Procedure, shortened: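 SPR with antibody amine-coupled to the chip and human PACAP38 flowed as analyte at 1.23–100 nM in PBST containing 0.25 M arginine, 0.2 mg/ml BSA and 0.005% azide, pH 7. Association lasted 2–4 min and dissociation 3–120 min. Kinetics were fitted to a 1:1 Langmuir model.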

Row | Kd | koff | kon | Binder
40 | 31 pM | 1.7e-05 s⁻¹ | 550000 M⁻¹ s⁻¹ | B1
41 | ≤ 26 pM | ≤ 1e-05 s⁻¹ | 380000 M⁻¹ s⁻¹ | B2
42 | 71 pM | 3.6e-05 s⁻¹ | 510000 M⁻¹ s⁻¹ | B3
43 | ≤ 27 pM | ≤ 1e-05 s⁻¹ | 370000 M⁻¹ s⁻¹ | B4
44 | ≤ 21 pM | ≤ 1e-05 s⁻¹ | 470000 M⁻¹ s⁻¹ | B5
45 | 61 pM | 6.1e-05 s⁻¹ | 1e+06 M⁻¹ s⁻¹ | B6

Molecular target: T2, human PACAP27
Experiment: SPR, Ab immobilised

Row | Kd | koff | kon | Binder
46 | 480 pM | 0.00013 s⁻¹ | 270000 M⁻¹ s⁻¹ | B1
47 | 300 pM | 7.9e-05 s⁻¹ | 260000 M⁻¹ s⁻¹ | B2
48 | 35000 pM | 0.031 s⁻¹ | 890000 M⁻¹ s⁻¹ | B3
49 |  | 0.1 s⁻¹ |  | B4
50 | ≤ 13 pM | ≤ 1e-05 s⁻¹ | 760000 M⁻¹ s⁻¹ | B5
51 | 120 pM | 7.7e-05 s⁻¹ | 620000 M⁻¹ s⁻¹ | B6
